One experiment deals with T1, CHD4 PHD2 (443–498) (human, UniProt Q14839 443-498).
T1 construct: CHD4, human, second PHD finger, aa 443-498; Cloned into pGex6p1; also called second PHD finger of CHD4; source: E. coli BL21 DE3 pLysS, purified (glutathione Sepharose 4B, GST cleaved with Prescission protease)
Kind of experiment: other fluorescence titration; intrinsic tryptophan fluorescence; H3 (1-12) peptide added to 0.5-1 uM CHD4 PHD construct; 25 °C, pH 7.5, 75 mM NaCl, 3 mM DTT; apparent. Conditions: both partners purified.

The next experiment has as its target T2, CHD4 PHD1 (aa 362–417) (human, UniProt Q14839 362-417).
T2 construct: CHD4, human, first PHD finger, aa 362-417; Cloned into pGex6p1; also called first PHD finger of CHD4; source: E. coli BL21 DE3 pLysS, purified (glutathione Sepharose 4B, GST cleaved with Prescission protease)
Described as above. Conditions: both partners purified.

T2 sequence (Q14839 362-417): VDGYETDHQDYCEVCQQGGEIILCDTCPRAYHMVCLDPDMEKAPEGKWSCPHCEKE
T1 sequence (Q14839 443-498): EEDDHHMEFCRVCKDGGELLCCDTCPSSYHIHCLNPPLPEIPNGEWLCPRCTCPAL

B1: histone H3 peptide (aa 1–12) (peptide, UniProt P68431 2-13, looked up)
peptide: ARTKQTARKSTG
notes: histone H3, aa 1-12, unmodified; also called H3 (1–12) peptide; histone peptide; source: synthetic peptide (University of Colorado Denver Peptide Core Facility)
For the molecule B1, the Kd came out at 430 nM in the experiment with CHD4 PHD2 (443–498) and 4000 nM in the experiment with CHD4 PHD1 (aa 362–417).

The values are drawn from PMC5686127, “Accessibility of the histone H3 tail in the nucleosome for binding of paired readers” (Nature Communications, 2017).
